# Experimental data published in patent publication US10835618 (UNIVERSITY OF NOTTINGHAM, dated 2020).
# B1: FG129 mAb (mouse FG129/29 IgG1 kappa) (antibody)
# heavy: EVQLVESGGGLVQPKGSLKLSCAASGFTFNTYAMNWVRQAPGKGLEWVARIRSKSNNYATYYADSVKDRFTISRDDSQSMLYLQMNNLKKEDTAMYYCVGYGSGGNYWGQGTSVTVSSAKTTPPSVYPLAPGSAAQTNSMVTLGCLVKGYFPEPVTVTWNSGSLSSGVHTFPAVLESDLYTLSSSVTVPSSPRPSETVTCNVAHPASSTKVDKKIVPRDCGCKPCICTVPEVSSVFIFPPKPKDVLTITLTPKVTCVVVDISKDDPEVQFSWFVDDVEVHTAQTQPREEQFNSTFRSVSELPIMHQDWLNGKEFKCRVNSAAFPAPIEKTISKTKGRPKAPQVYTIPPPKEQMAKDKVSLTCMITDFFPEDITVEWQWNGQPAENYKNTQPIMNTNGSYFVYSKLNVQKSNWEAGNTFTCSVLHEGLHNHHTEKSLSHSPGK
# light: DIVMTQSPSSLTVTAGEKVTMSCKSSQSLLNSGNQKNYLTWYQQKPGQPPKVLIYWASTRESGVPDRFTGSGSGTDFTLTISSVQAEDLAVYYCQNDYSSPFTFGSGTKLEIKRADAAPTVSIFPPSSEQLTSGGASVVCFLNNFYPKDINVKWKIDGSERQNGVLNSWTDQDSKDSTYSMSSTLTLTKDEYERHNSYTCEATHKTSTSPIVKSFNRNEC
# notes: Murine IgG1k from a hybridoma; It recognises the glycans sialyl-di-Lewis a, sialyl-Lewis a-x and mono-sialyl-Lewis a on glycoproteins; also called mAb FG129; F129/29
# B2: CH129 (chimeric FG129, mouse variable regions on human IgG1/kappa constant regions) (antibody)
# heavy: not shown
# light: DIVMTQSPSSLTVTAGEKVTMSCKSSQSLLNSGNQKNYLTWYQQKPGQPPKVLIYWASTRESGVPDRFTGSGSGTDFTLTISSVQAEDLAVYYCQNDYSSPFTFGSGTKLEIKRTVAAPSVFIFPPSDEQLKSGTASVVCLLNNFYPREAKVQWKVDNALQSGNSQESVTEQDSKDSTYSLSSTLTLSKADYEKHKVYACEVTHQGLSSPVTKSFNRGEC
# notes: Expressed in CHO-S or HEK293 cells and purified on protein G
# B3: FG129-scFv (scFv)
# scFv: EVQLVESGGGLVQPKGSLKLSCAASGFTFNTYAMNWVRQAPGKGLEWVARIRSKSNNYATYYADSVKDRFTISRDDSQSMLYLQMNNLKKEDTAMYYCVGYGSGGNYWGQGTSVTVSGGGGSGGGGSGGGGSDIVMTQSPSSLTVTAGEKVTMSCKSSQSLLNSGNQKNYLTWYQQKPGQPPKVLIYWASTRESGVPDRFTGSGSGTDFTLTISSVQAEDLAVYYCQNDYSSPFTFGSGTKLEIKRAAAAAAHHHHHH
# notes: Order is leader, VH, 3xGGGGS, VL, 6xAla, 6xHis; The leader is left out as secreted from Expi293 cells; also called scFv129
# How the values were obtained:
# [1] = target: T1, BxPC3; assay: flow cytometry titration on BxPC3 cells, geometric mean against antibody concentration [panel FACS - BxPC3]
# T1 construct: Group of unnamed glycoproteins on whole cells; also called cell surface of BxPC3 cells
# [2] = target: T2, LS180; assay: flow cytometry titration on LS180 cells, geometric mean against antibody concentration [panel FACS - LS180]
# T2 construct: Group of unnamed glycoproteins on whole cells; also called cell surface of LS180 cells
# [3] = target: T3, HCT-15; assay: flow cytometry titration on HCT-15 cells, geometric mean against antibody concentration [panel FACS - HCT-15]
# T3 construct: Group of unnamed glycoproteins on whole cells; also called cell surface of HCT-15 cells
# [4] = target: T4, Colo205; assay: flow cytometry titration on Colo205 cells, geometric mean against antibody concentration [panel FACS - Colo205]
# T4 construct: Group of unnamed glycoproteins on whole cells; also called cell surface of Colo205 cells
# [5] = target: T4, Colo205; assay: flow cytometry titration on Colo205 cells, Gm value against concentration
Binder,Kd [1],Kd [2],Kd [3],Kd [4],Kd [5]
B1,80.2 nM,67.9 nM,42.7 nM,53.3 nM,–
B2,118 nM,110 nM,15.3 nM,57.3 nM,–
B3,–,–,–,–,377 nM
